{
  "source": "patent US20230399384A1",
  "conditions_in_all_cases": "remark: other sources report otherwise",
  "key": {"[1]": {"molecular_target": "T1, sCoV2-RBD (Fc-tagged RBD of SARS-CoV-2 S protein) (SARS-CoV-2; human), P0DTC2", "assay": "ELISA titration on coated sCoV2-RBD"}, "[2]": {"molecular_target": "trimeric prefusion S protein of SARS-CoV-2 (SARS-CoV-2), P0DTC2"}, "[3]": {"molecular_target": "T1, sCoV2-RBD (Fc-tagged RBD of SARS-CoV-2 …)"}, "[4]": {"molecular_target": "T1, sCoV2-RBD (Fc-tagged RBD of SARS-CoV-2 …)", "assay": "BLI (Octet) blocking of ACE2 binding to captured sCoV2-RBD"}},
  "note": "Read-outs that look alike come from different tables or passages of the source.",
  "data": [
    {"binder": "CoV2-16 (antibody, V domains shown) VH: QVQLHQWGAGLLKPSETLSRTCAVYGGSFSGYYWTWIRQAPGKGLEWIGEINHGGSTRYNPSLESRVSISVDTSKKQFSLELRSVTAADTAIYYCARGYDTNWYGDGYNWFDPWDRGTLVTVSS VL: QAVVTQPPSVSGTPGQRVTISCSGSSSSIGSNTVHWYQHLPGTAPKLLMYNNNERPSGVPARFSGSKSGTSASLVITGLQADDEAEYYCQSYDTGLSGHVFGSGTELTVL", "values": [
      {"measurement": "EC50", "setting": "[1]", "value": 7.77, "unit": "nM"},
      {"measurement": "Kd", "setting": "[2]", "value": 5.35, "unit": "nM"},
      {"measurement": "EC50", "setting": "[3]", "value": 7.77, "unit": "nM"},
      {"measurement": "IC50", "setting": "[4]", "value": 6.9, "unit": "µg/mL"}
    ]},
    {"binder": "CoV2-09 (antibody, V domains shown) VH: QVQLHQWGAGLLKPSETLSRTCAVYGGSFSGYYWTWIRQAPGKGLEWIGEINHGGSTRYNPSLESRVSISVDTSKKQFSLELRSVTAADTAIYYCARGYDTNWYGDGYNWFDPWDRGTLVTVSS VL: QSALTQDPSVSVALGQTVRITCQGDSLRGSFASWYRQKPGQAPVLVIFGINNRPSGVPDRFSGSSSGNTASLTITGAQAEDEADYYCNSRESNSNRILFGGGTKVTVL", "values": [
      {"measurement": "Kd", "setting": "[2]", "value": 0.94, "unit": "nM"},
      {"measurement": "IC50", "setting": "[4]", "value": 3.54, "unit": "µg/mL"}
    ]}
  ]
}
